Assay results published in the RNAGym collection of RNA variant scans (doi:10.1073/pnas.2313332121).
Variants at the floor of the assay were thinned out.

B1: TPR 5TU (parent)
chain: GGAUCUUCUCGAUCUAACAAAAAAGACAAAUCUGCCACAAAGCUUGAGAGCAUCUUCGGAUGCAGAGGCGGCAGCCUUCGGUGGCGCGAUAGCGCCAACGUUCUCAACUAUGACACGCAAAACGCGUGCUCCGUUGAAUGGAGUUUAUCAUG

Variants of: B1
Test: polymerase ribozyme fitness, log enrichment relative to wild type (log ratio); higher = more active; in vitro selection for triplet polymerase activity
Method in brief: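 Frozen incubation at −7 °C formed the core of a single, triplicate in vitro selection round applied to PCR-built, transcribed mutant libraries of each subunit of a heterodimeric triplet polymerase ribozyme. Extended constructs were gel-excised, captured with streptavidin beads and amplified by RT-PCR, and input and output libraries were Illumina-sequenced with a filter of ≥10 input reads and ≥1 read per output. Fitness is the logarithm of genotype enrichment relative to wild-type enrichment, with inverse-variance-weighted replicate averaging, and the logarithm is base 2.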

| Variant | polymerase ribozyme fitness (log ratio) |
| --- | --- |
| U13G C69A | ≤ -4.2 |
| A12G U56G C96U A120U | -0.669 |
| A12U G34C G62C A73U C96U A107G C116G A147G | ≤ -4.2 |
| C14G A40C G42C G48A G86U G92U C99A | ≤ -4.2 |
| A12U G58U A60U G86C A107U G133U C149G | ≤ -4.2 |
| A12U A23U A40U C87A G88C G117U | ≤ -4.2 |
| A12G C14A C57A C85G | -3.75 |
| C14A A37U G50U G94U A106U | ≤ -4.2 |
| U13G A21U C57U G68A A73U G92C C103A | ≤ -4.2 |
| C14G A39G U53A C54U C93A | ≤ -4.2 |
| C14G A52C G58A C96U C125G | -3.92 |
| C14G C27A A37U C54U G67A G94U C105G | ≤ -4.2 |
| U13A A16G G86U | -2.89 |
| A12U A17G A23G C35U G83A C87G G136U | ≤ -4.2 |
| A12U C14U A17U G59A C93U A122U G143C | ≤ -4.2 |
| C14G A39U C57G | -4.06 |
| A12U A26U G46C C57U C93U C125G U127G A138G | ≤ -4.2 |
| U13G A21C C27A U55A C99A C103G | ≤ -4.2 |
| A12U A23U U45C A97G A98U C131G C132U | -4.12 |
| A12U C18G C63G G83U U111G | ≤ -4.2 |
| C14G A24U A30U U44A C54A C87U G112U | -4.11 |
| U13G U44A G124C U144G | ≤ -4.2 |
| U13G G83C U145C | -3.39 |
| C14A G46C C75G C87A A89U U90G C96U U102G G140A | ≤ -4.2 |

| Variant | polymerase ribozyme fitness (log ratio) |
| --- | --- |
| U13C C76A U82G C85U C118G | -2.92 |
| A12G C116G G126U | 1.17 |
| C14A U61G U111A A121C | ≤ -4.2 |
| U13A | -0.225 |
| U13C | -0.269 |
| U13G | -0.261 |
| U13G C57U C96G | -1.66 |
| C14G A21G G34A A37C G50C C57G A60C A64G | ≤ -4.2 |
| A12G C96U | -0.793 |
| C14A G34U G74C G84U G143A | ≤ -4.2 |
| C14A G94U A107G | ≤ -4.2 |
| A12U C51G G88C C108G G117C | ≤ -4.2 |
| U13G A30C C85A | ≤ -4.2 |
| A12G A37C C87U G92A A119U G136A | -0.359 |
| A12U A147U | 0.945 |
| A12U G25C C35U U77G G94U | ≤ -4.2 |
| U13C A26U A52C U55A G88A A89C C99U U135G A142U | ≤ -4.2 |
| A12U U15A A21U U55A C76U C79A A121U | ≤ -4.2 |
| U13A U45A U56A G74A | ≤ -4.2 |
| U13G A29U C38G G70U G117U A120U C149U | ≤ -4.2 |
| A12U C43U C63U U90C C105G G140A | ≤ -4.2 |
| C14A U82A G92A | ≤ -4.2 |
| A12G A21G C43U U55A G83U U144G | ≤ -4.2 |
| A12U C96U | -0.566 |

| Variant | polymerase ribozyme fitness (log ratio) |
| --- | --- |
| C14A U53A G94C | -3.67 |
| U13C U56A A60G C95U C105G U109G C132A U145G | ≤ -4.2 |
| C14A C85A C129U | -2.79 |
| U13C U148C | -2.48 |
| C14G A24G A41U G67A G152A | ≤ -4.2 |
| U13G C36A G83U C99A G140U | -4 |
| C14A A37G C93U | -4.13 |
| A12U C118U A119C G136A G143C | -3.19 |
| A12U A89U G94U C108G C118U A120C A122C A137C | ≤ -4.2 |
| U13G A21U C96U G133C A147C | -4.05 |
| A12U C85U G136U | -3.16 |
| U13C A20C A21C G58A U82A U101A | -1.36 |
| U13C A66U G88A A91U | ≤ -4.2 |
| C14G A107G G136U | ≤ -4.2 |
| C14G C27G G58A G86U U127C | -4.16 |
| C14G A47C C54G U56A C93A C108U G124U G128A | ≤ -4.2 |
| A12U A39U U53G G126U | -4.09 |
| A12G A37G C54A C57U G71A A115G | ≤ -4.2 |
| U13C A22G A49U G68C C79G | ≤ -4.2 |
| U13C C54G C95G | -3.76 |
| A12G A91U C105G A106U | -4.11 |
| C14A C38U G84U | -3 |
| A12U U15G A39U G86U U102G C116U | ≤ -4.2 |
| U13G G86U | -3.56 |

| Variant | polymerase ribozyme fitness (log ratio) |
| --- | --- |
| A12U A91U A120G U146A | -4.18 |
| U13G A21U A22C U82G G92U A98C C116U G136A | -4.02 |
| A12U A39U A73U G80A C93A G141U | ≤ -4.2 |
| A12G G83A G133C G143A U146G | -3.34 |
| A12U U55A C57G C103A G128U A147C | -4.11 |
| U13A A23U G59A C87U | ≤ -4.2 |
| C14A A39G G42A U82C G88C | ≤ -4.2 |
| C14A G68U C76A C99U G100A | ≤ -4.2 |
| U13C A20C G83U C85A C93A | ≤ -4.2 |
| U13G C32A G86C A107G C125G U135A | ≤ -4.2 |
| U13G U111G | ≤ -4.2 |
| A12U G71A C75U G84A C85U G117A | ≤ -4.2 |
| A12G U78G A89G C95U U109C U145C A150G | ≤ -4.2 |
| U13C C36A C85G C99A A138C | ≤ -4.2 |
| A12G C18U G83U A89G C96U | -1.73 |
| A12G C63U U134A | -2.26 |
| A12U A47C A52C U56G A64C G86A A89G C99U | ≤ -4.2 |
| U13C A26U U56A G58C C63A G74U G88C A97U | ≤ -4.2 |
| U13G A30C G50C U82A A110C G136U | ≤ -4.2 |
| C14G A24C A26U C36A A73G A107U A119U U144A | ≤ -4.2 |
| C14G C18U A22C A40C U53A C75A U77A G94C G117U A119G C149G | ≤ -4.2 |
| C14A A20U A21U U102G | ≤ -4.2 |
| U13G C75G | ≤ -4.2 |
| C14A G59A U82A G84U | -4.06 |

| Variant | polymerase ribozyme fitness (log ratio) |
| --- | --- |
| C14G A20C G50U U53A G126U U139A | ≤ -4.2 |
| A12G C36A C69U C85G A89C A113U | ≤ -4.2 |
| A12U G50A U53A C87U G136A | ≤ -4.2 |
| A12G C54A C99U | -1.32 |
| A12G U53A U56A U82G A91U G117C A142G | -4.16 |
| A12G A73U C96A U109A C116U | -2.66 |
| U13G C14U A16G G59A U90G | -4.01 |
| U13C G58A | 0.452 |
| U13A U45A G84A | ≤ -4.2 |
| U13G A28U G71A G88C | ≤ -4.2 |
| C14A A41C G94C | -2.95 |
| A12G G88C | -3.71 |
| A12U A47G C118G | -1.11 |
| A12G C85U C129A U151C | ≤ -4.2 |
| U13C G88A C99G | -4.01 |
| U13G G59U C96U | -0.998 |
| U13A A41G C85G A147G | -2.67 |
| A12U A49U C54G C93G | ≤ -4.2 |
| U13G A137U | ≤ -4.2 |
| A12G G92C A107G G133U | ≤ -4.2 |
| U13G A52C C85G G86U C129G | ≤ -4.2 |
| A12G G42A G62A U101C C105G U134G | ≤ -4.2 |
| C14A A17C C93U C116G | -2.99 |
| U13G A24U A37G U134C | -4.14 |

| Variant | polymerase ribozyme fitness (log ratio) |
| --- | --- |
| C14G A39G A49U U56A G81U | ≤ -4.2 |
| A12G A19C A40G U45C G92A G141A | ≤ -4.2 |
| C14G A22G G25A A28C G50C G84U U104G | ≤ -4.2 |
| C14A A17U A21G C54U A60G | -3.75 |
| C14G A22C A73U | -3.92 |
| A12U A17U C18U G34A A64G C87G | ≤ -4.2 |
| A12G C27A U31G C35G C85A A97C C99G C149A | ≤ -4.2 |
| U13G G25A G83A | -4.07 |
| U13A C54G G68A C75G C76G U90G C95G A119U | ≤ -4.2 |
| A12U C36G G92C A147G | ≤ -4.2 |
| A12U G34C G46A G83A A121U G141U | ≤ -4.2 |
| A12G U44A G46A A66C G86A C93A A97U A138G A142G | ≤ -4.2 |
| C14A U15G A26U G86U G92U A107U U109A C116A | ≤ -4.2 |
| A12G U45A C57G U78A G80U C103A C118G | ≤ -4.2 |
| C14A G48A A91U G100A U101C U134A | ≤ -4.2 |
| A12U U109G | -2.25 |
| C14A C116G | -0.826 |
| U13A A21C U56A A60G G92U U102A C114U C123U | -3.84 |
| C14G A30C G50A C76U C87A A107G U111C A120U | ≤ -4.2 |
| U13A U15C A28G U33G C79A C118U U148G | ≤ -4.2 |
| A12G U53A | -0.69 |
| C14A A40G C43G G86U U135C G143C U148G | ≤ -4.2 |
| C14G A52G G141C | -3.34 |
| A12G A29G U55A C85U C96U C105U | ≤ -4.2 |

| Variant | polymerase ribozyme fitness (log ratio) |
| --- | --- |
| C14G A66U C69A | ≤ -4.2 |
| C14A A19C G58U A89U | -2.28 |
| C14A C87A A97U G143A | ≤ -4.2 |
| C14A G50A C85G C96A | ≤ -4.2 |
| C14G A24G U31A A49C A52C C54A U56A A73U A89G C99G A107C C149G | ≤ -4.2 |
| A12U U15G U56A G71C G84A G117U A120U A147U | -3.53 |
| U13G A39C G62A A107U U139A A142U | ≤ -4.2 |
| U13C A16U G84A U109G | -1.88 |
| A12G G48A C54U C85G G117U | -2.26 |
| U13G U33G C54U | ≤ -4.2 |
| U13A U15C A26C C93A | -3.05 |
| U13A A17G A49C A107G | ≤ -4.2 |
| C14G A29G U33C A37U U111G G124U U134A | ≤ -4.2 |
| A12G C87A | ≤ -4.2 |
| A12U A20G A21C U31A C35G G86U A91G A119U G128C | -3.91 |
| A12G C93G | -2.99 |
| U13G C36U A52G U55G C69U C76G G83C C114U C149A | ≤ -4.2 |
| C14A A16C U56G C57G A91C G136U | ≤ -4.2 |
| C14G A47C | -2.35 |
| A12U A122U A147C | -0.484 |
| C14A A17G U31A G59A C75G C95U U101G A113U A121U | ≤ -4.2 |
| U13G A22G A24U A28G C76U U78A C79G G81A U102G C114A | ≤ -4.2 |
| A12U G42C C72G C76A A91U A120U U144C | ≤ -4.2 |
